For this assay, the target named is recombinant protein fibronectin-collagen peptide (FCP) (human). Description: SPR; OpenSPR (Nicoya); FCP fixed on an NTA sensor chip by capture coupling, integrin β3 injected sequentially; PBS running buffer, 25 °C; binding and dissociation 250 s each; regeneration with hydrochloric acid pH 2.0; one-to-one diffusion-corrected model, TraceDrawer (the discussion says integrin β3 was the captured one). Background: Surface plasmon resonance follows binding to a sensor surface in real time, without labels.

pKd: −log10 of the molar value.

Among the data in PMC9151557 are Kd values, retold here.

One may read the pKd as the Kd on a negative log10 scale, so that one unit is a factor of ten.

integrin β3, sequence (P05106 27-718): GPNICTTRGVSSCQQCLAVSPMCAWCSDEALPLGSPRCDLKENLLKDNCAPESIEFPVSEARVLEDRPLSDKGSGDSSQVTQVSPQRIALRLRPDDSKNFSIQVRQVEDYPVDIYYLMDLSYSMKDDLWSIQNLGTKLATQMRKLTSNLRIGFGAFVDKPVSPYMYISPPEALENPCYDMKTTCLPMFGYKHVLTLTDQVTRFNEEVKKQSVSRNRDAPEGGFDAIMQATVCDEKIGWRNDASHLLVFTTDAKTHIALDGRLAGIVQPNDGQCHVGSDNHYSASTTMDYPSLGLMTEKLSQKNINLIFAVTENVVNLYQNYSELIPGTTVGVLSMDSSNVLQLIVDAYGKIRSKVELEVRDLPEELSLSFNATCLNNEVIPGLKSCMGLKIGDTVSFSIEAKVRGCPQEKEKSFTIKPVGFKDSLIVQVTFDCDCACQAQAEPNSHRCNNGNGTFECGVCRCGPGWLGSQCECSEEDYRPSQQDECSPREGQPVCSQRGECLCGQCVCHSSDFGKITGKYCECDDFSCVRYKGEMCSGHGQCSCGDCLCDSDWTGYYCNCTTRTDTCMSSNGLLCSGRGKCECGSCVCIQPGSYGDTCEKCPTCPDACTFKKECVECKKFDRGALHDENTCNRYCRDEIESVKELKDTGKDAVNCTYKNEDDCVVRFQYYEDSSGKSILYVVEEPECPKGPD

Take “integrin β3 (from UniProt P05106 27-718) (receptor)”: the pKd was 7.27.
